Test results from US20220040297A1 (Chugai, published 2022).

B1: GLS3000 V94A (antibody, name in Kabat numbering, V domains shown)
VH: QVQLVESGGGVVQPGRSLRLSCAASGFTFSNAWMHWVRQAPGKGLEWVAQIKAKSNNYATYYAESVKGRFTISRDDSKNSLYLQMNSLKTEDTAVYYCRYVHYGAYYGVDAWGQGTTVTVSS
VL: DIVMTQSPLSLPVTPGEPASISCRSSQSLVHSNRNTYLHWYQQKPGQAPRLLIYKVSNRFSGVPDRFSGSGSGTDFTLKISRVEAEDVGVYYCGQGTQAPYTFGQGTKLEIK
notes: one-arm format as m2
B2: GLS3000 V94F (antibody, name in Kabat numbering, V domains shown)
VH: QVQLVESGGGVVQPGRSLRLSCAASGFTFSNAWMHWVRQAPGKGLEWVAQIKAKSNNYATYYAESVKGRFTISRDDSKNSLYLQMNSLKTEDTAVYYCRYVHYGAYYGVDAWGQGTTVTVSS
VL: DIVMTQSPLSLPVTPGEPASISCRSSQSLVHSNRNTYLHWYQQKPGQAPRLLIYKVSNRFSGVPDRFSGSGSGTDFTLKISRVEAEDVGVYYCGQGTQFPYTFGQGTKLEIK
notes: one-arm format as m2
B3: GLS3000 V94N (antibody, name in Kabat numbering, V domains shown)
VH: QVQLVESGGGVVQPGRSLRLSCAASGFTFSNAWMHWVRQAPGKGLEWVAQIKAKSNNYATYYAESVKGRFTISRDDSKNSLYLQMNSLKTEDTAVYYCRYVHYGAYYGVDAWGQGTTVTVSS
VL: DIVMTQSPLSLPVTPGEPASISCRSSQSLVHSNRNTYLHWYQQKPGQAPRLLIYKVSNRFSGVPDRFSGSGSGTDFTLKISRVEAEDVGVYYCGQGTQNPYTFGQGTKLEIK
notes: one-arm format as m2
B4: GLS3000 V94P (antibody, name in Kabat numbering, V domains shown)
VH: QVQLVESGGGVVQPGRSLRLSCAASGFTFSNAWMHWVRQAPGKGLEWVAQIKAKSNNYATYYAESVKGRFTISRDDSKNSLYLQMNSLKTEDTAVYYCRYVHYGAYYGVDAWGQGTTVTVSS
VL: DIVMTQSPLSLPVTPGEPASISCRSSQSLVHSNRNTYLHWYQQKPGQAPRLLIYKVSNRFSGVPDRFSGSGSGTDFTLKISRVEAEDVGVYYCGQGTQPPYTFGQGTKLEIK
notes: one-arm format as m2
B5: GLS3000 V94Y (antibody, name in Kabat numbering, V domains shown)
VH: QVQLVESGGGVVQPGRSLRLSCAASGFTFSNAWMHWVRQAPGKGLEWVAQIKAKSNNYATYYAESVKGRFTISRDDSKNSLYLQMNSLKTEDTAVYYCRYVHYGAYYGVDAWGQGTTVTVSS
VL: DIVMTQSPLSLPVTPGEPASISCRSSQSLVHSNRNTYLHWYQQKPGQAPRLLIYKVSNRFSGVPDRFSGSGSGTDFTLKISRVEAEDVGVYYCGQGTQYPYTFGQGTKLEIK
notes: one-arm format as m2
B6: GLS3000 V94E (antibody, name in Kabat numbering, V domains shown)
VH: QVQLVESGGGVVQPGRSLRLSCAASGFTFSNAWMHWVRQAPGKGLEWVAQIKAKSNNYATYYAESVKGRFTISRDDSKNSLYLQMNSLKTEDTAVYYCRYVHYGAYYGVDAWGQGTTVTVSS
VL: DIVMTQSPLSLPVTPGEPASISCRSSQSLVHSNRNTYLHWYQQKPGQAPRLLIYKVSNRFSGVPDRFSGSGSGTDFTLKISRVEAEDVGVYYCGQGTQEPYTFGQGTKLEIK
notes: one-arm format as m2
B7: GLS3000 V94H (antibody, name in Kabat numbering, V domains shown)
VH: QVQLVESGGGVVQPGRSLRLSCAASGFTFSNAWMHWVRQAPGKGLEWVAQIKAKSNNYATYYAESVKGRFTISRDDSKNSLYLQMNSLKTEDTAVYYCRYVHYGAYYGVDAWGQGTTVTVSS
VL: DIVMTQSPLSLPVTPGEPASISCRSSQSLVHSNRNTYLHWYQQKPGQAPRLLIYKVSNRFSGVPDRFSGSGSGTDFTLKISRVEAEDVGVYYCGQGTQHPYTFGQGTKLEIK
notes: one-arm format as m2
B8: GLS3000 Y32F (antibody, name in Kabat numbering, V domains shown)
VH: QVQLVESGGGVVQPGRSLRLSCAASGFTFSNAWMHWVRQAPGKGLEWVAQIKAKSNNYATYYAESVKGRFTISRDDSKNSLYLQMNSLKTEDTAVYYCRYVHYGAYYGVDAWGQGTTVTVSS
VL: DIVMTQSPLSLPVTPGEPASISCRSSQSLVHSNRNTFLHWYQQKPGQAPRLLIYKVSNRFSGVPDRFSGSGSGTDFTLKISRVEAEDVGVYYCGQGTQVPYTFGQGTKLEIK
notes: one-arm format as m2
B9: GLS3000 V94S (antibody, name in Kabat numbering, V domains shown)
VH: QVQLVESGGGVVQPGRSLRLSCAASGFTFSNAWMHWVRQAPGKGLEWVAQIKAKSNNYATYYAESVKGRFTISRDDSKNSLYLQMNSLKTEDTAVYYCRYVHYGAYYGVDAWGQGTTVTVSS
VL: DIVMTQSPLSLPVTPGEPASISCRSSQSLVHSNRNTYLHWYQQKPGQAPRLLIYKVSNRFSGVPDRFSGSGSGTDFTLKISRVEAEDVGVYYCGQGTQSPYTFGQGTKLEIK
notes: one-arm format as m2
B10: GLS3000 V94I (antibody, name in Kabat numbering, V domains shown)
VH: QVQLVESGGGVVQPGRSLRLSCAASGFTFSNAWMHWVRQAPGKGLEWVAQIKAKSNNYATYYAESVKGRFTISRDDSKNSLYLQMNSLKTEDTAVYYCRYVHYGAYYGVDAWGQGTTVTVSS
VL: DIVMTQSPLSLPVTPGEPASISCRSSQSLVHSNRNTYLHWYQQKPGQAPRLLIYKVSNRFSGVPDRFSGSGSGTDFTLKISRVEAEDVGVYYCGQGTQIPYTFGQGTKLEIK
notes: one-arm format as m2
B11: GLS3000 V94R (antibody, name in Kabat numbering, V domains shown)
VH: QVQLVESGGGVVQPGRSLRLSCAASGFTFSNAWMHWVRQAPGKGLEWVAQIKAKSNNYATYYAESVKGRFTISRDDSKNSLYLQMNSLKTEDTAVYYCRYVHYGAYYGVDAWGQGTTVTVSS
VL: DIVMTQSPLSLPVTPGEPASISCRSSQSLVHSNRNTYLHWYQQKPGQAPRLLIYKVSNRFSGVPDRFSGSGSGTDFTLKISRVEAEDVGVYYCGQGTQRPYTFGQGTKLEIK
notes: one-arm format as m2
B12: GLS3000 V94W (antibody, name in Kabat numbering, V domains shown)
VH: QVQLVESGGGVVQPGRSLRLSCAASGFTFSNAWMHWVRQAPGKGLEWVAQIKAKSNNYATYYAESVKGRFTISRDDSKNSLYLQMNSLKTEDTAVYYCRYVHYGAYYGVDAWGQGTTVTVSS
VL: DIVMTQSPLSLPVTPGEPASISCRSSQSLVHSNRNTYLHWYQQKPGQAPRLLIYKVSNRFSGVPDRFSGSGSGTDFTLKISRVEAEDVGVYYCGQGTQWPYTFGQGTKLEIK
notes: one-arm format as m2
B13: GLS3000 V94K (antibody, name in Kabat numbering, V domains shown)
VH: QVQLVESGGGVVQPGRSLRLSCAASGFTFSNAWMHWVRQAPGKGLEWVAQIKAKSNNYATYYAESVKGRFTISRDDSKNSLYLQMNSLKTEDTAVYYCRYVHYGAYYGVDAWGQGTTVTVSS
VL: DIVMTQSPLSLPVTPGEPASISCRSSQSLVHSNRNTYLHWYQQKPGQAPRLLIYKVSNRFSGVPDRFSGSGSGTDFTLKISRVEAEDVGVYYCGQGTQKPYTFGQGTKLEIK
notes: one-arm format as m2
B14: GLS3000 V94M (antibody, name in Kabat numbering, V domains shown)
VH: QVQLVESGGGVVQPGRSLRLSCAASGFTFSNAWMHWVRQAPGKGLEWVAQIKAKSNNYATYYAESVKGRFTISRDDSKNSLYLQMNSLKTEDTAVYYCRYVHYGAYYGVDAWGQGTTVTVSS
VL: DIVMTQSPLSLPVTPGEPASISCRSSQSLVHSNRNTYLHWYQQKPGQAPRLLIYKVSNRFSGVPDRFSGSGSGTDFTLKISRVEAEDVGVYYCGQGTQMPYTFGQGTKLEIK
notes: one-arm format as m2
B15: GLS3000 V94D (antibody, name in Kabat numbering, V domains shown)
VH: QVQLVESGGGVVQPGRSLRLSCAASGFTFSNAWMHWVRQAPGKGLEWVAQIKAKSNNYATYYAESVKGRFTISRDDSKNSLYLQMNSLKTEDTAVYYCRYVHYGAYYGVDAWGQGTTVTVSS
VL: DIVMTQSPLSLPVTPGEPASISCRSSQSLVHSNRNTYLHWYQQKPGQAPRLLIYKVSNRFSGVPDRFSGSGSGTDFTLKISRVEAEDVGVYYCGQGTQDPYTFGQGTKLEIK
notes: one-arm format as m2
B16: GLS3000 Y32A (antibody, name in Kabat numbering, V domains shown)
VH: QVQLVESGGGVVQPGRSLRLSCAASGFTFSNAWMHWVRQAPGKGLEWVAQIKAKSNNYATYYAESVKGRFTISRDDSKNSLYLQMNSLKTEDTAVYYCRYVHYGAYYGVDAWGQGTTVTVSS
VL: DIVMTQSPLSLPVTPGEPASISCRSSQSLVHSNRNTALHWYQQKPGQAPRLLIYKVSNRFSGVPDRFSGSGSGTDFTLKISRVEAEDVGVYYCGQGTQVPYTFGQGTKLEIK
notes: one-arm format as m2
B17: GLS3000 V94T (antibody, name in Kabat numbering, V domains shown)
VH: QVQLVESGGGVVQPGRSLRLSCAASGFTFSNAWMHWVRQAPGKGLEWVAQIKAKSNNYATYYAESVKGRFTISRDDSKNSLYLQMNSLKTEDTAVYYCRYVHYGAYYGVDAWGQGTTVTVSS
VL: DIVMTQSPLSLPVTPGEPASISCRSSQSLVHSNRNTYLHWYQQKPGQAPRLLIYKVSNRFSGVPDRFSGSGSGTDFTLKISRVEAEDVGVYYCGQGTQTPYTFGQGTKLEIK
notes: one-arm format as m2
B18: GLS3000 V94G (antibody, name in Kabat numbering, V domains shown)
VH: QVQLVESGGGVVQPGRSLRLSCAASGFTFSNAWMHWVRQAPGKGLEWVAQIKAKSNNYATYYAESVKGRFTISRDDSKNSLYLQMNSLKTEDTAVYYCRYVHYGAYYGVDAWGQGTTVTVSS
VL: DIVMTQSPLSLPVTPGEPASISCRSSQSLVHSNRNTYLHWYQQKPGQAPRLLIYKVSNRFSGVPDRFSGSGSGTDFTLKISRVEAEDVGVYYCGQGTQGPYTFGQGTKLEIK
notes: one-arm format as m2
B19: GLS3000 V94L (antibody, name in Kabat numbering, V domains shown)
VH: QVQLVESGGGVVQPGRSLRLSCAASGFTFSNAWMHWVRQAPGKGLEWVAQIKAKSNNYATYYAESVKGRFTISRDDSKNSLYLQMNSLKTEDTAVYYCRYVHYGAYYGVDAWGQGTTVTVSS
VL: DIVMTQSPLSLPVTPGEPASISCRSSQSLVHSNRNTYLHWYQQKPGQAPRLLIYKVSNRFSGVPDRFSGSGSGTDFTLKISRVEAEDVGVYYCGQGTQLPYTFGQGTKLEIK
notes: one-arm format as m2
B20: GLS3000 Y32D (antibody, name in Kabat numbering, V domains shown)
VH: QVQLVESGGGVVQPGRSLRLSCAASGFTFSNAWMHWVRQAPGKGLEWVAQIKAKSNNYATYYAESVKGRFTISRDDSKNSLYLQMNSLKTEDTAVYYCRYVHYGAYYGVDAWGQGTTVTVSS
VL: DIVMTQSPLSLPVTPGEPASISCRSSQSLVHSNRNTDLHWYQQKPGQAPRLLIYKVSNRFSGVPDRFSGSGSGTDFTLKISRVEAEDVGVYYCGQGTQVPYTFGQGTKLEIK
notes: one-arm format as m2
B21: GLS3000 V94Q (antibody, name in Kabat numbering, V domains shown)
VH: QVQLVESGGGVVQPGRSLRLSCAASGFTFSNAWMHWVRQAPGKGLEWVAQIKAKSNNYATYYAESVKGRFTISRDDSKNSLYLQMNSLKTEDTAVYYCRYVHYGAYYGVDAWGQGTTVTVSS
VL: DIVMTQSPLSLPVTPGEPASISCRSSQSLVHSNRNTYLHWYQQKPGQAPRLLIYKVSNRFSGVPDRFSGSGSGTDFTLKISRVEAEDVGVYYCGQGTQQPYTFGQGTKLEIK
notes: one-arm format as m2

target: CD3ε homodimer protein (human, UniProt P07766 23-126, limits assumed); experiment: SPR, immobilized CD3ε homodimer;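 further: biacore T200 surface plasmon resonance at 25 °C, antibody variants flowed as analytes over amine-coupled CD3ε homodimer on a CM4 chip, variant binding amount divided by that of GLS3000 antibody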
Sequence (P07766 23-126 limits assumed): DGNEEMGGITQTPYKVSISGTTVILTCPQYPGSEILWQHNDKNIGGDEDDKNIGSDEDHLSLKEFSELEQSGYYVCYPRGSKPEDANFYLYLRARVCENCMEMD
Method: Each one-amino acid altered form constructed, expressed, and purified in the paragraph (6-2) was evaluated using Biacore T200 (GE Healthcare Japan Corp.). An appropriate amount of CD3ε homodimer protein was immobilized onto Sensor chip CM4 (GE Healthcare Japan Corp.) by the amine coupling method. Then, the antibody having an appropriate concentration was injected thereto as an analyte and allowed to interact with the CD3ε homodimer protein on the sensor chip. Then, the sensor chip was regenerated by the injection of 10 mmol/L glycine-HCl (pH 1.5). The assay was conducted at 25° C., and HBS-EP+ (GE Healthcare Japan Corp.) was used as a running buffer. […] Each parameter was calculated using Biacore T200 Evaluation Software (GE Healthcare Japan Corp.).
Specifically, when the amount of the GLS3000-containing antibody bound was defined as X and the amount of the L chain one-amino acid altered form bound was defined as Y, a value of Z (ratio of amounts bound)=Y/X was used.

B1 was tested. Which “ratio of amounts bound (vs GLS3000)” value did it give?
The value was 1.05.

How did the “ratio of amounts bound (vs GLS3000)” value turn out when B2 was run?
The value was 0.71.

B3 was tested. Which “ratio of amounts bound (vs GLS3000)” value did it give?
The value was 1.05.

For B4, which “ratio of amounts bound (vs GLS3000)” value is on record?
The value was 1.26.

Which “ratio of amounts bound (vs GLS3000)” value does the source give for B5 here?
The value was 0.63.

B6 was tested. Which “ratio of amounts bound (vs GLS3000)” value did it give?
The value was 0.5.

How did the “ratio of amounts bound (vs GLS3000)” value turn out when B7 was run?
Its value is 0.78.

For B8, which “ratio of amounts bound (vs GLS3000)” value is on record?
Its value is 0.29.

How did the “ratio of amounts bound (vs GLS3000)” value turn out when B9 was run?
Its value is 0.93.

Which “ratio of amounts bound (vs GLS3000)” value does the source give for B10 here?
Its value is 0.66.

Which “ratio of amounts bound (vs GLS3000)” value does the source give for B11 here?
Its value is 0.66.

For B12, which “ratio of amounts bound (vs GLS3000)” value is on record?
Its value is 0.58.

With B13 as the binder, how does the “ratio of amounts bound (vs GLS3000)” value read?
Its value is 0.57.

B14 was tested. Which “ratio of amounts bound (vs GLS3000)” value did it give?
Its value is 0.44.

With B15 as the binder, how does the “ratio of amounts bound (vs GLS3000)” value read?
Its value is 0.89.

Which “ratio of amounts bound (vs GLS3000)” value does the source give for B16 here?
The value was 0.24.

Which “ratio of amounts bound (vs GLS3000)” value does the source give for B17 here?
Its value is 0.93.

How did the “ratio of amounts bound (vs GLS3000)” value turn out when B18 was run?
Its value is 0.48.

For B19, which “ratio of amounts bound (vs GLS3000)” value is on record?
Its value is 0.44.

With B20 as the binder, how does the “ratio of amounts bound (vs GLS3000)” value read?
The value was 0.23.

B21 was tested. Which “ratio of amounts bound (vs GLS3000)” value did it give?
Its value is 0.76.
